Assay [1] concerns the target T1, human MS4A4A ECL1 peptide (amino acid residues 86-98) (human).
T1 construct: synthetic peptide
T1 peptide: CMASNTYGSNPIS
In words: peptide ELISA. In a few lines:
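Free or BSA-conjugated peptides were coated at 2 or 10 […] in 0.05M carbonate buffer, pH 9.6, overnight at 4 °C, then blocked 1 h with PBS+0.5% BSA+0.05% Tween20. Antibodies were bound 30 min at room temperature with shaking. TMB was developed 5-10 min, stopped, and absorbance read at 650 nm.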

Assay [2] deals with T2, human MS4A4A ECL2 peptide (amino acid residues 159-179), free (human).
T2 construct: synthetic peptide; also called huMS4A4A-ELC2 free-peptide
T2 peptide: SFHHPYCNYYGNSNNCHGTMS
In words: peptide ELISA, supernatant.

The target in assay [3] is T3, cynomolgus (cyno) MS4A4A (cynomolgus).
T3 construct: also called cy4A; Cyno 4A
In words: FACS, stably transfected cells.

For assay [4], the target named is T4, human MS4A4A (human, UniProt Q96JQ5 1-239). Nature of the assay: FACS, K562 cells, supernatant; K562 cells overexpressing h4A. The protocol:
(§1) Positive clones identified in Example 22 above were expanded and then rescreened for specificity against U937, K562, and/or 300.19 cells stably overexpressing human MS4A4A or cyno MS4A4A and parental U937, K562, and/or 300.19 cells. These experiments were performed using supernatants from hybridoma clones which had undergone further expansion after initial selection. Briefly, stably transfected cells were labeled with LIVE/DEAD Fixable Aqua Dead Cell Stain Kit (ThermoFisher Scientific Cat#L34957) on ice for 30 minutes. […] 2×10⁵ cells were aliquoted per well in 96-well U-bottom plates and incubated with 50 μl of culture supernatant on ice for 30 minutes. […] Following this secondary incubation, the cells were again washed twice with ice-cold FACS buffer and resuspended in a final volume of 200 μl of FACS buffer. Analysis was performed on a FACS Canto system (BD Biosciences), with gates drawn to exclude dead (Aqua-positive) cells.
(§2) The APC ratio was calculated for each antibody as follows. […] For cell lines overexpressing human MS4A4A (h4A) or cyno MS4A4A (cy4A), the ration was calculated by comparing the binding measured to the binding observed on the corresponding parental cell lines.

Assay [5] addresses T4, human MS4A4A. Nature of the assay: FACS, U937 cells, supernatant; U937 cells overexpressing h4A. On the procedure:
as §1, §2

Assay [6] concerns the target T1, human MS4A4A ECL1 peptide (amino acid …). In words: array SPR.
The target of assay [7] is T5, human MS4A6A ECL1 peptide (amino acid residues 68-85) (human).
T5 peptide: SASFSPNFTQVTSTLLNS
Nature of the assay: array SPR.

Assay [8] deals with T6, human MS4A6A ECL2 peptide (amino acid residues 138-185) (human).
T6 peptide: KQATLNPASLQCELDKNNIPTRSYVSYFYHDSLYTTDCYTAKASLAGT
In words: array SPR.

The target of assay [9] is T7, BSA-conjugated human MS4A4A ECL2 peptide (amino acid residues 159-179) (human, conjugated to BSA (site not stated)).
T7 construct: also called MS4A4A-ECL2 BSA conjugated peptide; BSA-MS4A4A-ELC2 peptide
T7 peptide: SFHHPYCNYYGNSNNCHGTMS
In words: ELISA, hybridoma supernatant.

In assay [10] the target is T4, human MS4A4A. Nature of the assay: FACS, U937 cells, supernatant; U937 cells overexpressing h4A, ratio over parental U937; parental U937 itself scores +. On the procedure: as §1, §2
Assay [11] has as its target T3, cynomolgus (cyno) MS4A4A. Nature of the assay: FACS, HEK293, supernatant.
A further assay addresses T8, peptide 4A.3 (human).
T8 construct: 15-mer of human MS4A4A
T8 peptide: Biotin-CMASNTYGSNPISVY
Nature of the assay: array SPR, peptide on streptavidin chip. The protocol:
(§3) Epitope binding characteristics of anti-MS4A4A antibodies are determined by two complementary approaches. First, a panel of overlapping peptides derived from the extracellular loops (ECLs) of human MS4A4A (SEQ ID NO:1) and human MS4A6A (SEQ ID NO: 291) were synthesized by JPT peptides (Berlin, Germany). These peptides were 15 amino acids in length, each offset by 2 amino acids. The peptides were biotinylated on the N-terminus. […] Anti-MS4A4A antibodies of the present disclosure and commercially-available anti-MS4A4A antibodies were tested for binding to the various linear peptides by Carterra (South San Francisco, Calif., USA) using a proprietary array SPR instrument (MX-96).
(§4) The peptide library was printed onto a streptavidin-coated chip (Xantec SAD50M, Dusseldorf, Germany) using the Continuous Flow Microspotter (CFM). First, the chip was activated with 100 mM MES, pH 5.5, 100 μL EDC (133 mM final), 100 μL of S-NHS (33.3 mM final). The peptide library was immobilized onto the chip at 250 nM per peptide diluted into HBS-EP+buffer (Teknova Cat # H8022) with 1 mg/ml BSA and 1 μg/ml mouse IgG-Biotin. Following immobilization, the chip surface was deactivated with 1M ethanolamine at pH 8.5 for 10 minutes. Hybridoma supernatants and purified anti-MS4A4A antibodies were diluted in HBS-EP+buffer with 1 mg/ml BSA and injected onto the chip. Duplicate measurements for each anti-MS4A4A antibody were taken to ensure reproducibility. Binding characteristics were determined for each peptide-antibody combination, allowing the mapping of the linear peptide region each antibody interacts with.

The target of a further assay is T9, peptide 4A.4 (human).
T9 construct: 15-mer of human MS4A4A
T9 peptide: Biotin-ASNTYGSNPISVYIG
In words: array SPR, peptide on streptavidin chip. The protocol:
as §3, §4

Another assay addresses T10, peptide 4A.5 (human).
T10 construct: 15-mer of human MS4A4A
T10 peptide: Biotin-LAFYSFHHPYCNYYG
In words: array SPR, peptide on streptavidin chip. On the procedure: as §3, §4

The target in another assay is T11, peptide 4A.6 (human).
T11 construct: 15-mer of human MS4A4A
T11 peptide: Biotin-FYSFHHPYCNYYGNS
Nature of the assay: array SPR, peptide on streptavidin chip. The protocol:
as §3, §4

A further assay deals with T12, peptide 4A.7 (human).
T12 construct: 15-mer of human MS4A4A
T12 peptide: Biotin-SFHHPYCNYYGNSNN
Nature of the assay: array SPR, peptide on streptavidin chip. On the procedure: as §3, §4

The target of another assay is T13, peptide 4A.8 (human, cysteine pairing not given here).
T13 construct: 15-mer of human MS4A4A
T13 peptide: Biotin-HHPYCNYYGNSNNCH
In words: array SPR, peptide on streptavidin chip. On the procedure:
as §3, §4

For the next assay, the target named is T14, peptide 4A.9 (human, cysteine pairing not given here).
T14 construct: 15-mer of human MS4A4A
T14 peptide: Biotin-PYCNYYGNSNNCHGT
In words: array SPR, peptide on streptavidin chip. The protocol: as §3, §4

Another assay deals with T15, peptide 4A.10 (human, cysteine pairing not given here).
T15 construct: 15-mer of human MS4A4A
T15 peptide: Biotin-CNYYGNSNNCHGTMS
In words: array SPR, peptide on streptavidin chip. On the procedure: as §3, §4

Another assay has as its target T16, peptide 4A.11 (human).
T16 construct: 15-mer of human MS4A4A
T16 peptide: Biotin-YYGNSNNCHGTMSIL
In words: array SPR, peptide on streptavidin chip. The protocol:
as §3, §4

Another assay concerns the target T17, peptide 4A.12 (human).
T17 construct: 15-mer of human MS4A4A
T17 peptide: Biotin-GNSNNCHGTMSILMG
In words: array SPR, peptide on streptavidin chip. The protocol: as §3, §4

The next assay concerns the target T18, peptide 4A.1 (human).
T18 construct: 15-mer of human MS4A4A
T18 peptide: Biotin-ITMMCMASNTYGSNP
Nature of the assay: array SPR, peptide on streptavidin chip. The protocol: as §3, §4

Another assay concerns the target T19, peptide 4A.2 (human).
T19 construct: 15-mer of human MS4A4A
T19 peptide: Biotin-MMCMASNTYGSNPIS
Nature of the assay: array SPR, peptide on streptavidin chip. The protocol:
as §3, §4

Assay [12] deals with T2, human MS4A4A ECL2 peptide (amino acid …). In words: array SPR (Carterra MX-96), antibody captured, peptide in solution. On the procedure: Binding kinetic characterization of the anti-MS4A4A antibodies to MS4A4A ECL1 and ECL2 and to MS4A6A ECL1 and ECL2 peptides was performed by Carterra (South San Francisco, Calif.) using a proprietary array Surface Plasmon Resonance (SPR) instrument (MX-96) as follows. Antibodies were captured onto a CMD500D chip (Xantec # SPMX CMD500D) using the Continous Flow Microspotter (CFM). First, the chip was activated with 100 mM MES pH 5.5, 100 μL EDC (133 mM final), 100 μL of S-NHS (33.3 mM final), for 7 minutes. […] Anti-MS4A4A hydridoma supernatant or purified anti-MS4A4A antibodies were diluted in HBS-EP+ buffer (Teknova Cat # H8022) and then printed as duplicates with a 20 minute and a 5-minute print from the same sample solution.
These were then injected on the chip for five minutes, followed by a seven-minute dissociation period at 8 uL per second in a non-regenerative kinetic series. Duplicate measurements for each anti-MS4A4A antibody were taken to ensure reproducibility. Association rates (Kon) and dissociation rates (Koff) were calculated using a single one-to-one Langmuir binding model. The equilibrium dissociation constant (KD) was calculated as the ration of Koff/Kon.

Assay [13] deals with T7, BSA-conjugated human MS4A4A ECL2 …. In words: ELISA, supernatant.
The target in assay [14] is T4, human MS4A4A. Nature of the assay: FACS, HEK293, supernatant.
In assay [15] the target is T3, cynomolgus (cyno) MS4A4A. In words: flow cytometry (anti-mouse IgG Fc-APC), hybridoma supernatant on 300.19 cells transfected with cyno MS4A4A. The protocol:
Flow cytometry was performed as follows. Briefly, transiently-transfected cells were labeled with LIVE/DEAD Fixable Aqua Dead Cell Stain Kit (ThermoFisher Scientific Cat#L34957) on ice for 30 minutes. […] 2×10⁵ cells were aliquoted per well in 96-well U-bottom plates and incubated with 50 μl of culture supernatant on ice for 30 minutes. […] Following this secondary incubation, the cells were again washed twice with ice-cold FACS buffer and resuspended in a final volume of 200 μl of FACS buffer. Analysis was performed on a FACS Canto system (BD Biosciences), with gates drawn to exclude dead (Aqua-positive) cells.

Ends that are not written are not given here. * marks the point of attachment. Biotin = O=C1N[C@H]2[C@H](CS[C@H]2CCCCC(=O)*)N1 Some results are limits rather than exact numbers.

B1: anti-MS4A4A antibody 4A-206 (murine) (antibody, V domains shown)
VH: EVKLVESGGGLVKPGGSLKLSCAASGFTFSSYTMSWVRQTPEKRLEWVASLSSGGSTYYPDSVKGRFTISRDNARNILYLQMSSLRSEDTAMYYCAKDYYVSSYRWYFDVWGAGTTVTVSS
VL: DIQMTQITSSLSASLGDRVTISCRASQDISNYLNWYQQKPDGTVKLLIYYTSNLHSGVPSRFSGSGSGTDYSLTISNLEQEDIATYFCQQGKSFPWTFGGGTKLEIK
notes: murine hybridoma antibody
Regarding B1, the binding result was “no binding” in [1], “no binding” in [2] and “binds” with cynomolgus (cyno) MS4A4A [3]. For the same molecule, the “fold increase in MFI” value in the assay with human MS4A4A [4] and with human MS4A4A [5] was more than 2 fold in each case.

B2: anti-MS4A4A antibody 4A-24 (antibody, V domains shown)
VH: EVKLEESGGGLVQPGGSMKLSCAASGFTFSDAWMDWVRQSPEKGLEWVAEIRDNADNHPTYYAESVKGRFTISRDDSKSSVYLQMNSLRAEDTGIYYCTSDYYGSHWGQGTTLTVSS
VL: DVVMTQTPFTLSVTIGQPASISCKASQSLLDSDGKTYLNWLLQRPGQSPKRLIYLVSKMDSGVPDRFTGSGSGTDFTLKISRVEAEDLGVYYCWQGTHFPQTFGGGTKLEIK
notes: murine hybridoma antibody
Consider B2, for which the binding result was “no binding (tested: 2000 nM)” in [6], “no binding (tested: 2000 nM)” in assay [7], “no binding (tested: 2000 nM)” in assay [8] and “no binding” in assay [9].

B3: anti-MS4A4A antibody 4A-219 (murine) (antibody, V domains shown)
VH: QVQMKQSGPGLVQPSQSLSITCTVSGFSLTSYGVHWVRQSPGKGLEWLGVIWSGGSTDYNAAFISRLSISKDNSKSQVFFKMNSLQADDTAIYYCVRLYYGYDGFAYWGQGTLVTVSS
VL: DIVMTQSHKFMSTSVGDRVSITCKASQDVSTAVAWYQQKPGQSPKLLIYSASYRYTGVPDRFTGSGSGTDFTFTISSVQAEDLAVYYCQQHYSTPLTFGAGTKLELK
notes: murine hybridoma antibody
Regarding B3, the binding result in [1] and in [2] was “no binding” throughout. Further, the “fold increase in MFI” value in the assay with human MS4A4A [10] was more than 2 fold.

B4: anti-MS4A4A antibody 4A-21 (murine) (antibody, IgG1, V domains shown)
VH: QIQLVQSGPELKKPGETVKISCKASGYIFTSYGLSWVKQTPGKGLKWMGWINTYSGVPTYANDFKGRFAFSLETSASTTYLRINNLKNDDTATYFCARSLVDYWGQGTPLTVSS
VL: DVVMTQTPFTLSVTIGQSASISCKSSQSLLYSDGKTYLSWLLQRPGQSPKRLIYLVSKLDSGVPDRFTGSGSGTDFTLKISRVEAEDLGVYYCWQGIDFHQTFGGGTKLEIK
notes: murine hybridoma antibody, msIgG1; also called 4A-21 (msIgG1)
Take B4: the binding result in assay [1] is recorded as “no binding”. The “Cyno 4A:parental cell ratio” value in the assay with cynomolgus (cyno) MS4A4A [11] was 1.31 ratio. In addition, the SPR binding signal was -10.6 in the assay with peptide 4A.3; -7.9 with peptide 4A.4; 383 in the assay with peptide 4A.5; 486 with peptide 4A.6; 446 in the assay with peptide 4A.7; 309 with peptide 4A.8. In addition, the SPR binding signal with peptide 4A.9 is 225; with peptide 4A.10, -4.5; in the assay with peptide 4A.11 it was -6.5; with peptide 4A.12, -5.2; with peptide 4A.1 it was -11.2; with peptide 4A.2, -11.5. Also, binding in assay [12] was put at a Kd of 31 nM. In assay [12], this molecule registered a koff of 0.0078 s⁻¹. The molecule also had a kon in [12] of 250000 M⁻¹ s⁻¹.

B5: anti-MS4A4A antibody 4A-23 (antibody, V domains shown)
VH: EVQLQQSGPELVKPGASVKMSCQASGYTFTDYNIHWVKQSHGKSLKWIGYINPNNDDTTFNQKFKGKATLTVNKSSSTAYMELRSLTSEDSAVYYCARSPYCYFDVWGTGTTVTVSS
VL: DIQMTQSPSSLSASLGGKVTITCKASQDINKYIVWYQHKPGKGPRLLINYTSTLQPGIPSRFSGGGSGGDYSFSISNLEPEDIATYYCLQYDNLWTFGGGTKLEIK
notes: murine hybridoma antibody
Regarding B5, the binding result in assay [6] is reported as “no binding (tested: 2000 nM)”; in assay [7] it was “no binding (tested: 2000 nM)”; in assay [8], “no binding (tested: 2000 nM)”; in assay [13] it was “binds”; with cynomolgus (cyno) MS4A4A [15], “no binding”. Moreover, the “Human 4A:parental cell ratio” value with human MS4A4A [14] was 1.96 ratio. In addition, the “Cyno 4A:parental cell ratio” value with cynomolgus (cyno) MS4A4A [11] came to 1.22 ratio.

The values are drawn from patent publication US20230126400A1 (Alector, published 2023).
